Assay results taken from patent US20190233542A1 (WUXI BIOLOGICS IRELAND, published 2019).

B1: 19.3.8-uAb1-IgG4L (antibody, V domains shown)
VH: QVQLVQSGAEVKKPGASVKVSCKASGYTFTGYYINWVRQAPGQGLEWMGRINPNSGGTNYAQKFQGRVTMTRDTSINTAYMELSRLRSDDTAVYFCASWEGTVTTWDFYYYYGMDVWGQGTTVTVSS
VL: QSALTQPASVSGSPGQSITISCTGTSSDVDTYNYVSWYQHHPGKAPKLIIFDVSNRPSGVSNRFSGSKSGNTASLTISGLQAEDEADYYCSSYTSSSTLVVFGGGTKLTVL
notes: human IgG4 constant region, lambda light chain
B2: 15.14.2-uAb-IgG4L (antibody, V domains shown)
VH: EVQMLESGGGLVQPGGSLRLSCAVSGFTFSRFAMSWVRQAPGKGLDWVSSISDNAGRTYFADSVKGRFTISRDNSKNTLYLQMNSLRADDTAVYYCAKLSNWGPYGMDVWGQGTTVTVSS
VL: QSALTQPPSASGSPGQSVTISCTGTSSDVGYYNYVSWYQQHPGEAPKLMIYEVNKRPSGVPDRFSGSKSGSTASLTVSGLQAVDEADYYCSSYAGSKNFVVFGGGTKLTVL
notes: as for B1
B3: 18.156.8 (hIgG4) (antibody, V domains shown)
VH: QVQLVESGGGVVQPGRSLRLSCAASGFTFSSYGMHWVRQAPGKGLEWMAVIWYDGTNKYYADSVKGRFTISRDNSKNTVYLQMNSLRAEDTAVYYCAREKGLDWGQGTLVTVSS
VL: not shown
notes: human IgG4 constant region, kappa light chain
B4: 17.72.3-uAb2-IgG4K (antibody, V domains shown)
VH: QVQLQESGPGLVKPSGTLSLTCAVSGGSIRSYNWWSWVRQPPGEGLEWIGEIHHSGTTNYNPSLKSRVTISVDKSKNQFSLKLSSVTAADTAVYYCARDYSGSYFDYWGQGTLVTVSS
VL: EVVLTQSPATLSLSPGERATLSCRTSQSLSSYVAWSQQKPGQAPRLLIYDASKRATGVPARFSGSGSGTDFTLTISNLEPEDFAVYYCHQRGNWMSSFGQGTKLEIK
notes: as for B3
B5: 40409 (hIgG2) (antibody, V domains shown)
VH: QLNLQQSGPGLVNPSQTLSLTCAISGGSVSSNSAAWNWIRQSPSRGLEWLGRIYSRSKWYHDYAVSVKGRITINPDTSKNQFFLQLNSVTPEDTAVYYCARDWETIIWGDDGPNYYNYGLDVWGQGTTVTVSS
VL: DIQMTQSPSSLSASVGDRVTITCRASQGIRNDLGWYQQKPGKAPKRLIYGASSLQSGVPSRFSGSGSGTEFTLTISSLQPEDFATYYCLQHNNYLWTFGQGTKVEIK
B6: 40409 (hIgG4) (antibody, V domains shown)
VH: B5 VH
VL: B5 VL
notes: human IgG4 constant region

How the values were obtained:
[1] = target: T1, human PCSK9 (Proprotein Convertase Subtilisin/Kexin type 9) (human, UniProt Q8NBP7 31-692, biotin label in the ELISA formats (site not stated)); assay: binding ELISA on human PCSK9
T1 construct: 85 kDa was used as the analyte's mass in SPR; also called PCSK9 (WT); wild type PCSK9

[2] = target: T1, human PCSK9 (Proprotein Convertase …); assay: SPR, Biacore T200, antibody captured, PCSK9 as analyte
Experimental: (§1) Antibody binding affinity to human and rhesus PCSK9 was detected by SPR assay using Biacore T200. Each antibody was captured on a Protein A or or anti-human IgG Fc antibody immobilized CM5 sensor chip (GE). Human or rhesus PCSK9 at different concentrations were injected over the sensor chip at a flow rate of 30 μL/min for an association phase of 180 s, followed by 1200 s dissociation. The chip was regenerated by 2 M MgCl₂ after each binding cycle.
(§2) The sensorgrams for blank surface and buffer channel were subtracted from the test sensorgrams. The experimental data was fitted by 1:1 model using Langmiur analysis. Molecular weight of 85 KDa was used to calculate the molar concentration of analyte.
(§3) Kinetic affinities of antibody leads were measured by SPR assay.

[3] = target: T1, human PCSK9 (Proprotein Convertase …); assay: cell-based or functional assay
human PCSK9-mFc-biotin [4] = target: T2, human PCSK9-mFc-biotin (human, UniProt Q8NBP7 31-692, biotin label (site not stated)); assay: competitive ELISA, blocking of PCSK9 binding to LDL-R
T2 construct: not shown: murine Fc (mFc) fused at the C-terminus

rhesus PCSK9 = target: T3, rhesus PCSK9 (rhesus, UniProt A8T666 31-692, limits assumed); assay: SPR, Biacore T200, antibody captured, monkey PCSK9 as analyte
T3 construct: A rhesus PCSK9-His from Sino Biological is named only for the ELISA of Section 4.3.2; also called monkey PCSK9; rhesus PCSK9-His
Experimental: as §1, §2, §3

human PCSK9-mFc-biotin [5] = target: T2, human PCSK9-mFc-biotin; assay: competitive ELISA, blocking of PCSK9-mFc-biotin binding to coated LDL-R
Experimental: Blocking assay by ELISA: Plates (Nunc) were coated with LDL-R overnight at 4° C. Hybridoma supernatants were mixed with 250 ng/ml PCSK9-mFc-biotin and incubated at 4° C. overnight. After blocking and washing, the mixture were added to the plates and incubated for 1 h. The plates were then washed and subsequently incubated with streptavidin- HRP. After washing, TMB substrate was added and the interaction was stopped by 2M HCl. The absorbance at 450 nm was read using a microplate reader (Molecular Device).
The activities of reference antibodies 12H11.1.uIgG4K and 24B9.1.uIgG4L to blocking the binding of PCSK9 to LDLR were evaluated by competitive ELISA (FIG. 30) according to the methods described in Section 2.4 Hybridoma screening of EXAMPLE 2.

[6] = target: mutant human PCSK9 (D374Y) (human, UniProt Q8NBP7 31-692); assay: cell-based or functional assay
[7] = target: T1, human PCSK9 (Proprotein Convertase …); assay: cell-based or functional assay; remark: listed apart in the source
[8] = target: T1, human PCSK9 (Proprotein Convertase …); assay: SPR, Biacore T200, antibody captured, PCSK9 as analyte; remark: listed apart in the source
Experimental: as §1, §2

[9] = target: T1, human PCSK9 (Proprotein Convertase …); assay: cell-based or functional assay; remark: listed apart in the source
[10] = target: T1, human PCSK9 (Proprotein Convertase …); assay: ELISA on biotin-labeled PCSK9 captured on streptavidin, antibody diluted from human serum after 0 to 14 days at 37 C
[11] = target: T1, human PCSK9 (Proprotein Convertase …); assay: ELISA on streptavidin-captured PCSK9-biotin
Experimental: Binding assay by ELISA: Plates (Nunc) were coated with Streptavidin at 1 μg/ml overnight at 4° C. After blocking and washing, 250 ng/ml PCSK9-biotin was added and incubated for 1 h. Then hybridoma supernatants were transferred to the plates and incubate at room temperature for 1 h. The plates were then washed and subsequently incubated with secondary antibody goat anti rat IgG1 HRP (Bethyl) and goat anti rat IgG2b HRP (Bethyl) for 45 min. After washing, TMB substrate was added and the interaction was stopped by 2M HCl. The absorbance at 450 nm was read using a microplate reader (Molecular Device).
The activities of reference antibodies 12H11.1.uIgG4K and 24B9.1.uIgG4L binding to human PCSK9 were confirmed by ELISA (FIG. 29), according to the method described in Section 2.4 Hybridoma screening of EXAMPLE 2.

[12] = target: T1, human PCSK9 (Proprotein Convertase …); assay: SPR
[13] = target: T1, human PCSK9 (Proprotein Convertase …); assay: SPR; remark: listed apart in the source

Row | EC50 [1] [nM] | Kd [2] [nM] | koff [2] [s⁻¹] | kon [2] [M⁻¹ s⁻¹] | IC50, LDL-uptake assay in HepG2 [3] [nM] | IC50 (human PCSK9-mFc-biotin [4]) [nM] | Kd (rhesus PCSK9) [nM] | koff (rhesus PCSK9) [s⁻¹] | kon (rhesus PCSK9) [M⁻¹ s⁻¹] | IC50 of LDL-uptake restoration, HepG2 cells, PCSK9 (D374Y) [6] [nM] | IC50 of LDL-uptake restoration, Huh-7 cells, PCSK9 (D374Y) [6] [nM] | IC50 of LDL-uptake restoration, HepG2 cells, PCSK9 (WT) [7] [nM] | IC50 of LDL-uptake restoration, Huh-7 cells, PCSK9 (WT) [7] [nM] | other results | Binder
1 | 0.13 | 17.5 | 0.000271 | 15400 | 115 | 2 | 7.16 | 0.00441 | 616000 | – | – | – | – | – | B1
2 | 0.031 | 0.25 | 8.09e-05 | 324000 | 80 | 1.12 | 0.687 | 0.00031 | 452000 | – | – | – | – | – | B2
3 | 0.028 | 0.589 | 0.000146 | 248000 | – | 1.22 | 0.0371 | 3.19e-05 | 861000 | 10.8 | 5.2 | 65.1 | 76.1 | IC50 (human PCSK9-mFc-biotin [5]): 0.97 nM; Kd [8]: 0.0688 nM; koff [8]: 4.47e-05 s⁻¹; kon [8]: 649000 M⁻¹ s⁻¹; EC50, LDL-uptake assay in HepG2 [9]: 156 nM; EC50 (read off the curve) [10]: ~0.1 nM; EC50 [11]: 0.034 nM | B3
4 | 0.036 | 3.42 | 4.68e-05 | 13700 | 106 | 1.67 | 20.5 | 0.00226 | 110000 | – | – | – | – | – | B4
5 | – | – | – | – | – | – | – | – | – | 2.3 | 2.7 | 38.3 | 63.7 | – | B5
6 | 0.024 | 0.0523 | 9.05e-05 | 1.73e+06 | – | 1.75 | 0.413 | 0.000939 | 2.27e+06 | – | – | – | – | Kd [12]: 0.0523 nM; koff [12]: 9.05e-05 s⁻¹; kon [12]: 1.73e+06 M⁻¹ s⁻¹; fold further affinity improvement (over B4G2) [13]: 2 fold; fold higher affinity compared to BMK.115 [13]: 2 fold | B6
